Results reported in patent US20250026791A1, “CYCLIC PEPTIDE CYCLIZED IN AROMATIC NUCLEOPHILIC SUBSTITUTION REACTION, AND PEPTIDE LIBRARY, PRODUCTION METHOD, AND SCREENING METHOD FOR SAME” (UNIVERSITY OF YAMANASHI, priority 2021, published 2025).
*1 amine or outer side, *2 acyl side, *3 side chain or, on linkers, in order; H or OH if unused. Where no end group is shown, it is not given here. The star is where a group is joined. Lys(Biotin) = O=C(CCCC[C@@H]1SC[C@@H]2NC(=O)N[C@@H]21)NCCCC[C@H](N[*:1])C(=O)[*:2]; F5Ph = Fc1c(F)c(F)c(*)c(F)c1F; FNO2Ph = not defined here; Ahx = NCCCCCC(=O)O

How the values were obtained:
Assay type in all cases: binding
His-tagged PCSK9 = His-tagged PCSK9 (Homo sapiens, UniProt Q8NBP7); assay: His-tagged PCSK9 (HRP-conjugated anti-His-tag antibody) pulled down with peptide-immobilized streptavidin beads, chemiluminescence detection; conditions: peptide on streptavidin beads pulls down His-tagged PCSK9; FIGS. 18 and 19
His-tagged PCSK9, sequence (Q8NBP7 153-692): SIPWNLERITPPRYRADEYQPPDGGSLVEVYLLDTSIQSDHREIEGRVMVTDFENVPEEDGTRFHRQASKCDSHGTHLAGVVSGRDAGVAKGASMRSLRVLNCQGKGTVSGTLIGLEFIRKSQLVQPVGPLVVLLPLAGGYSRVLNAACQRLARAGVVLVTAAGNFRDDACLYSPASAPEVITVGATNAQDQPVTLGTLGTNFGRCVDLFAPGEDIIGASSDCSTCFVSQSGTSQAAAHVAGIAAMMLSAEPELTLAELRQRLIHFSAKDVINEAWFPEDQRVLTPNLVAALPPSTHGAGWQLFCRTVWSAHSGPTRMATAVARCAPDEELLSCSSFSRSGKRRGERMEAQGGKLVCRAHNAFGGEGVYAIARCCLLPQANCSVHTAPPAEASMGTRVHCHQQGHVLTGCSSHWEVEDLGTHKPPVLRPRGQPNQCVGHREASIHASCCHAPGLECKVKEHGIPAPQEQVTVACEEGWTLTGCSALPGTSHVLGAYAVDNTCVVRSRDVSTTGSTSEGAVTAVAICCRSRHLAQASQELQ
Description: Each of Peptide 1-1 and peptide 2-1 was conjugated to streptavidin beads. His-tagged PCSK9 was labeled via HRP-conjugated anti-His-tagged antibody. The complex of PCSK9 and HRP was pulled down with Peptide 1-1 or Peptide 2-1 immobilized beads. HRP substrates were added to the peptide-immobilized beads and chemiluminescence was detected using LuminoGraph III (ATTO).

PCSK9 [1] = target: T1, PCSK9 (Homo sapiens, UniProt Q8NBP7); assay: HRP-labeled peptide pulled down with PCSK9-immobilized beads, chemiluminescence detection; conditions: without presentation by cDNA-mRNA dimer, FIGS. 16, 17, 25
T1 sequence (Q8NBP7 153-692): as above
Description: Peptide 1-1 and Peptide 2-1 were labeled via horseradish peroxidase (HRP)-labeled streptavidin. Each peptide of HRP-labeled Peptide 1-1 and Peptide 2-1 was pulled down with PCSK9-immobilized beads. HRP substrate was added to PCSK9-immobilized beads and chemiluminescence was detected using LuminoGraph III (ATTO).
The PCSK9 binding activity of HRP-labeled Peptide 1-1 (monomer) and the dimer of Peptide 1-1 (Peptide A) were analyzed by PCSK9 pull-down and chemiluminescence detection.
Peptide C was labeled via HRP-labeled streptavidin. Based on the same method as in Experimental Example 7, the PCSK9 binding activity of HRP-labeled Peptide C was analyzed by PCSK9 pulldown and chemiluminescence detection.

PCSK9 [2] = target: T1, PCSK9; assay: Collection rate of cDNA/mRNA presenting cyclized peptide against PCSK9-immobilized beads; conditions: for collection rate against PCSK9, Peptide 2 (WT) versus Peptide 3 (C17S): FIG. 13, C17 replaced with serine
Description: Site-specific biotinylated human PCSK9 was immobilized on streptavidin-modified magnetic beads. Fc fusion protein of human PCSK9 was immobilized on protein A-modified magnetic beads. Immobilization of PCSK9 was confirmed by sodium dodecyl sulfate polyacrylamide gel electrophoresis and staining with Coomassie brilliant blue.
Each of the mRNA-presenting FNO2Ph and F5Ph cyclized peptide libraries was incubated with PCSK9-immobilized streptavidin-modified beads as positive selection. After removal of the supernatant, the beads were washed with HBS-T. cDNA encoding the peptide binding to the PCSK9-immobilized beads was PCR amplified with Taq DNA polymerase. The amplified PCR product was used for the next round of SELEX.
After the positive selection, cDNA encoding peptides that bind to PCSK9 immobilized beads was amplified by PCR and quantified by qPCR using SYBR green.
Each collection rate of the cDNA/mRNA presenting FNO2Ph cyclized peptide with the amino acid sequence of SEQ ID: 4 (hereafter referred to as Peptide 1) and the cDNA/mRNA presenting F5Ph cyclized peptide with the amino acid sequence of SEQ ID: 14 (hereafter referred to as Peptide 2) against PCSK9 was determined. […] beads were used as negative controls.
Peptide 3 (SEQ ID: 27) was prepared by replacing C17 in Peptide 2 (F5Ph is the first amino acid) with serine. Each collection rate of Peptide 2 (WT) and Peptide 3 (C17S) against PCSK9 was measured (FIG. 13).

human IL-5 = assay: Collection rate of cDNA/mRNA presenting cyclized peptide against IL-5; conditions: compared with IL-5 non-immobilized beads (FIGS. 29 and 30)
human IL-5, sequence (P05113 20-134): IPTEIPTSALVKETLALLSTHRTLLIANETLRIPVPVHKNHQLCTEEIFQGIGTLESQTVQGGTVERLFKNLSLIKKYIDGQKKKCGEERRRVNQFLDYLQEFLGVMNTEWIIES
Description: We checked whether the screening in Experimental Example 2 is applicable to compounds other than human PCSK9. Screening was performed for peptides that bind to human IL-5 as compounds other than human PCSK9.
Each collection rate of cDNA/mRNA presenting FNO2Ph cyclized peptide with the amino acid sequence of SEQ ID: 66 (hereafter referred to as Peptide 4) and cDNA/mRNA presenting F5Ph cyclized peptide with the amino acid sequence of SEQ ID: 69 (hereafter referred to as Peptide 5) against IL-5 was determined. IL-5 non-immobilized beads were used as a negative control. […] From the above, it was possible to screen for human IL-5 which is a compound other than human PCSK9.

| Substance | PCSK9 binding activity (PCSK9 [1]) | collection rate against PCSK9, Peptide 2 (WT) versus Peptide 3 (C17S) (PCSK9 [2]) | collection rate against IL-5 (human IL-5) | further results |
| --- | --- | --- | --- | --- |
| Peptide 2-1: chemically synthesized FNO2Ph cyclized peptide (as printed), SEQ ID: 14, C-terminal spacer of three Ahx and biotinylated lysine (RGHCWLYVYFPVRSLC-{Ahx-Ahx-Ahx-K(biotin)-NH2}; thioether (positions not given here); not fully specified (N-terminus, bridges); also: FNO2Ph cyclization, places not given here) | have binding activity to PCSK9 |  |  | PCSK9 binding activity (His-tagged PCSK9): have binding activity to PCSK9 |
| Peptide 2: F5Ph cyclized peptide with amino acid sequence of SEQ ID: 14 (RGHCWLYVYFPVRSLC), cDNA/mRNA presented (F5Ph-RGHCWLYVYFPVRSLC; thioether (positions not given here); not fully specified (bridges)) |  | C17 in Peptide 2 was found to be critical for Peptide 2 binding to PCSK9 |  | collection rate against PCSK9 (PCSK9 [2]; cDNA/mRNA presenting peptide, compared with negative control beads (FIGS. 10 and 11)): higher than that of the negative control |
| Peptide 3: SEQ ID: 27; C17 in Peptide 2 (F5Ph is the first amino acid) replaced with serine (F5Ph-RGHCWLYVYFPVRSLS; thioether (positions not given here); not fully specified (bridges)) |  | C17 in Peptide 2 was found to be critical for Peptide 2 binding to PCSK9 |  |  |
| Peptide 4: FNO2Ph cyclized peptide with amino acid sequence of SEQ ID: 66 (LLLMWCAVLVVLRWRRR), cDNA/mRNA presented (bridge (positions not given here) via FNO2Ph; reading uncertain; also: FNO2Ph cyclization, places not given here) |  |  | higher than those of the negative control |  |
| Peptide 5: F5Ph cyclized peptide with amino acid sequence of SEQ ID: 69 (HSPFTFQHC), cDNA/mRNA presented (bridge (positions not given here) via F5Ph; also: F5Ph cyclization, places not given here) |  |  | higher than those of the negative control |  |
| Peptide C: FNO2Ph cyclized peptide, SEQ ID: 35: two methionines of SEQ ID: 28 replaced with isoleucine; three Ahx spacer, biotinylated lysine (RWRFYSGIRNREIDC-{Ahx-Ahx-Ahx-Lys(Biotin)-NH2}; not fully specified (N-terminus, bridges); also: FNO2Ph cyclization, places not given here) | have binding activity for PCSK9 |  |  |  |
